From the Immune Epitope Database (IEDB)

These sequences were tested against HLA-A*02:01 (assay: IEDB peptide-MHC binding, purified MHC/competitive/radioactivity; ≥ and ≤ were set here for values at or beyond the usual limits of such assays). Settings: source organism: Influenza A virus.

Row | Sequence | IC50 [nM]
1 | RTMAWTVVNSI | 650

Same assay, conditions: source organism: Mammarenavirus brazilense

Row | Sequence | IC50 [nM]
2 | GLFQLIFFL | 0.44
3 | FTTTLFLHLV | 473
4 | TLFFTTTLFL | 423
5 | GLFQLIFFLT | 1230

Same assay, conditions: source organism: Mammarenavirus choriomeningitidis

Row | Sequence | IC50 [nM]
6 | SLNQTVHSL | 53
7 | SIISHNFCNL | 3680

Same assay, conditions: source organism: Mammarenavirus juninense

Row | Sequence | IC50 [nM]
8 | KMKCFGNTAV | 2930
9 | SLKAFFSWSL | 1600
10 | SLIAIIKGIV | 763
11 | SLIAIIKGV | 12

Same assay, conditions: source organism: Mammarenavirus lassaense

Row | Sequence | IC50 [nM]
12 | NLYDHALMSI | 3.9
13 | GTMPSLTLA | 1670
14 | FVFSTSFYLI | 329
15 | SIISTFHLSI | 714
16 | RMAWGGSYIA | 294

Same assay, conditions: source organism: Mammarenavirus machupoense

Row | Sequence | IC50 [nM]
17 | FLPKAAFAL | 30
18 | FLQEALNIA | 6.9
19 | TMNSVVQAL | 1250
20 | DAMPGVLSYV | 44
21 | AMPGVLSYVI | 2450
22 | SLLPLSLLFL | 7.3
23 | FLQEALNIAL | 16
24 | MVDEEPAAL | 998

Same assay, conditions: source organism: Mammarenavirus whitewaterense

Row | Sequence | IC50 [nM]
25 | FLKMRRIFGV | 64
26 | YVNHTGFNV | 478
27 | MINDTHFLL | 265
28 | FTPQIICGNV | 972
29 | QLDMIITAV | 57
30 | LLQFIVFLL | 159
31 | MIITAVNSLI | 438

Same assay, conditions: source organism: Vaccinia virus WR

Row | Sequence | IC50 [nM]
32 | SMFLMTATL | 2.3
33 | MMKTYIEFV | 4.7
34 | YLPLSVFII | 6.2
35 | STFIMLEGET | 3480
36 | ILAIIFLVL | 131
37 | LLLWPLYVL | 0.21
38 | VILSPPINA | 872
39 | LILSCIFAFI | 18
40 | KIIETYLGRV | 30
41 | YMMGIEYGL | 0.12
42 | ILSDDMLNI | 7.6
43 | FVFRSPFIV | 4.6
44 | MIDDSIEGI | 210
45 | NVFETRIVM | 2640
46 | DTWGSDGNPI | 1150
47 | EVVDMLSTYL | 1780
48 | SMVISLLSMI | 79
49 | DMIDNLNIV | 2360
50 | KMHDVIAPA | 2.6
51 | SLQTCAGVI | 2850
52 | KANCTAESST | 2760
53 | NIHSEMYSL | 580
54 | KIDKLRQIV | 1560
55 | FTTTSEVVDM | 1890
56 | TLLCVLPAV | 1

Row | Sequence | IC50 [nM]
57 | MLYFAGGLSV | 0.35
58 | NVVSSSTIA | 588
59 | AITDAAVAVA | 3830
60 | LMMTLPSIFL | 0.2
61 | WLIGFDFDV | 0.06
62 | GVLTIKAPNV | 3880
63 | IIITCCLLSV | 6.3
64 | GTYAVNIHV | 33
65 | NAPIKTFML | 3410
66 | YIYYFFIRL | 8.8
67 | NVYPGVWNT | 830
68 | STIATYIDAL | 2780
69 | NTIDQTANV | 162
70 | IMFKDDNII | 235
71 | ILPVIFLSI | 0.66
72 | MMWDLKKKGL | 103
73 | GIFCFRILL | 7.8
74 | AMIELCGAFL | 0.78
75 | QMTSTFIML | 420
76 | GLYCYFTHL | 5.4
77 | YTYAFTKKV | 16
78 | KLTDKKTFI | 1120
79 | GLKKIIQRV | 1700
80 | KTMAVTYEL | 0.4
81 | RTFLIDLAFL | 6.6

Row | Sequence | IC50 [nM]
82 | NLVKWPLLNI | 146
83 | KQDRSDGYFL | 3910
84 | LLYILRYIV | 138
85 | AVNEEWLTAV | 390
86 | YILRGLLEA | 2.5
87 | KLYLVDYGLV | 20
88 | AVISKVTYSL | 4770
89 | SIDIETESV | 235
90 | LLMTSLQYA | 2.5
91 | SVCNSLSQI | 1510
92 | FTDASTVASA | 793
93 | TLFDDELYSI | 1.1
94 | YLLDDVLYT | 1.3
95 | IILAISALL | 12
96 | SVVVPIKFIA | 4060
97 | LMMSCISCI | 12
98 | YLDGQLARL | 1.3
99 | VLYDEFKCFI | 5.9
100 | SILISLTNEI | 283
101 | RTVIHLEWLL | 134
102 | PIKFIAEFLV | 4460
103 | RIIDSEVVV | 94
104 | TISVVTLLCV | 3420
105 | LLLETKTILV | 3.3
106 | RMQRISGSNI | 4330

Row | Sequence | IC50 [nM]
107 | FLKDVMVEI | 3
108 | VMTPSPFYTV | 26
109 | TVASAQIHL | 3130
110 | RVFNEYGFVL | 535
111 | IITNAGTCTV | 454
112 | ALFGIKLPAL | 2.5
113 | GMLFVNDLM | 467
114 | KIADDRIVV | 6.6
115 | YIFAALGGSV | 45
116 | VVSVDCNKEL | 2430
117 | KQFIQRGGL | 3990
118 | TLDTAIFTDA | 50
119 | VLAIDFGNGA | 1440
120 | AIYKLGSSI | 1100
121 | LMSTLLIYL | 0.13
122 | MQRIISLSV | 454
123 | NLPEDIKRV | 151
124 | RLNPEVSYFT | 128
125 | FIDSYLQKL | 24
126 | YLLFGIKCI | 27
127 | DVVILLLSSV | 907
128 | FVFRSPFIVI | 170
129 | FLYNVYPGA | 1.3
130 | YLYETYHLI | 2.4
